In PMC10066265, “Inhibitor-3 inhibits Protein Phosphatase 1 via a metal binding dynamic protein–protein interaction” (Nature Communications, 2023):
Changes are numbered by the printed parent chain. Names may count otherwise. “And” between values parts separate entries of the source, which are not always exact repeats. Identical values can stand only once.

B1: I327-68 (I3 PP1 interaction domain) (domain or fragment)
chain: SLTIKLRKRKPEKKVEWTSDTVDNEHMGRRSSKCCCIYEKPR
B2: I3_(27-68) (I3 PP1 interaction domain) (domain or fragment, human, UniProt O60927 27-68, looked up)
chain: B1 chain
notes: PPP1R11), human, residues 27-68; also called WT I3_(27-68); source: E. coli BL21 (DE3), purified (Ni-NTA, TEV, heat 95 °C, SEC); not shown: His6, N-terminal, cleaved; MBP, N-terminal, cleaved
B3: IY: I3_(27-68) I63A/Y64A (domain or fragment, human, UniProt O60927 27-68, looked up)
chain: B1 chain with I37A, Y38A
notes: PPP1R11), human, residues 27-68; also called I3_(27-68) IY; source: E. coli BL21 (DE3), purified (Ni-NTA, TEV, heat 95 °C, SEC); not shown: His6, N-terminal, cleaved; MBP, N-terminal, cleaved
B4: SCC: I3_(27-68) C60S (domain or fragment, human, UniProt O60927 27-68, looked up)
chain: B1 chain with C34S
notes: PPP1R11), human, residues 27-68; source: E. coli BL21 (DE3), purified (Ni-NTA, TEV, heat 95 °C, SEC); not shown: His6, N-terminal, cleaved; MBP, N-terminal, cleaved
B5: SCS: I3_(27-68) C60S/C62S (domain or fragment, human, UniProt O60927 27-68, looked up)
chain: B1 chain with C34S, C36S
notes: PPP1R11), human, residues 27-68, C60S/C62S; also called I3_27-68_SCS; source: E. coli BL21 (DE3), purified (Ni-NTA, TEV cleavage, heat, SEC); not shown: His6, N-terminal, cleaved; MBP, N-terminal, cleaved
B6: SCS: I3_(27-68) C60S/C62S (domain or fragment, human, UniProt O60927 27-68, looked up)
chain: B1 chain with C34S, C36S
notes: as for B4
B7: CSS: I3_(27-68) C61S/C62S (domain or fragment, human, UniProt O60927 27-68, looked up)
chain: B1 chain with C35S, C36S
notes: as for B4
B8: IY: I3_(27-68) I63A/Y64A (domain or fragment, human, UniProt O60927 27-68, looked up)
chain: B1 chain with I37A, Y38A
notes: PPP1R11), human, residues 27-68, I63A/Y64A; also called I3_(27-68) IY; source: E. coli BL21 (DE3), purified (Ni-NTA, TEV cleavage, heat, SEC); not shown: His6, N-terminal, cleaved; MBP, N-terminal, cleaved
B9: SSC: I3_(27-68) C60S/C61S (domain or fragment, human, UniProt O60927 27-68, looked up)
chain: B1 chain with C34S, C35S
notes: PPP1R11), human, residues 27-68, C60S/C61S; also called I3_27-68_SSC; source: E. coli BL21 (DE3), purified (Ni-NTA, TEV cleavage, heat, SEC); not shown: His6, N-terminal, cleaved; MBP, N-terminal, cleaved
B10: CSC: I3_(27-68) C61S (domain or fragment, human, UniProt O60927 27-68, looked up)
chain: B1 chain with C35S
notes: PPP1R11), human, residues 27-68, C61S; source: E. coli BL21 (DE3), purified (Ni-NTA, TEV cleavage, heat, SEC); not shown: His6, N-terminal, cleaved; MBP, N-terminal, cleaved
B11: CSS: I3_(27-68) C61S/C62S (domain or fragment, human, UniProt O60927 27-68, looked up)
chain: B1 chain with C35S, C36S
notes: PPP1R11), human, residues 27-68, C61S/C62S; also called I3_27-68_CSS; source: E. coli BL21 (DE3), purified (Ni-NTA, TEV cleavage, heat, SEC); not shown: His6, N-terminal, cleaved; MBP, N-terminal, cleaved
B12: CSC: I3_(27-68) C61S (domain or fragment, human, UniProt O60927 27-68, looked up)
chain: B1 chain with C35S
notes: as for B4
B13: SSS: I3_(27-68) C60S/C61S/C62S (domain or fragment, human, UniProt O60927 27-68, looked up)
chain: B1 chain with C34S, C35S, C36S
notes: PPP1R11), human, residues 27-68; also called I3_(27-68)SSS; I3_(27-68) SSS; source: E. coli BL21 (DE3), purified (Ni-NTA, TEV, heat 95 °C, SEC); not shown: His6, N-terminal, cleaved; MBP, N-terminal, cleaved
B14: CCS: I3_(27-68) C62S (domain or fragment, human, UniProt O60927 27-68, looked up)
chain: B1 chain with C36S
notes: PPP1R11), human, residues 27-68, C62S; source: E. coli BL21 (DE3), purified (Ni-NTA, TEV cleavage, heat, SEC); not shown: His6, N-terminal, cleaved; MBP, N-terminal, cleaved
B15: SSC: I3_(27-68) C60S/C61S (domain or fragment, human, UniProt O60927 27-68, looked up)
chain: B1 chain with C34S, C35S
notes: as for B4
B16: CCS: I3_(27-68) C62S (domain or fragment, human, UniProt O60927 27-68, looked up)
chain: B1 chain with C36S
notes: as for B4
B17: SSS: I3_(27-68) C60S/C61S/C62S (domain or fragment, human, UniProt O60927 27-68, looked up)
chain: B1 chain with C34S, C35S, C36S
notes: PPP1R11), human, residues 27-68, C60S/C61S/C62S; also called I3_27-68_60SSS62; I3_(27-68) SSS; source: E. coli BL21 (DE3), purified (Ni-NTA, TEV cleavage, heat, SEC); not shown: His6, N-terminal, cleaved; MBP, N-terminal, cleaved
B18: CCCdeletion: I327-59 (Δ60-68) (domain or fragment, human, UniProt O60927 27-59, looked up)
chain: SLTIKLRKRKPEKKVEWTSDTVDNEHMGRRSSK
notes: also called I3 CCCdeletion; source: E. coli BL21 (DE3), purified (Ni-NTA, TEV cleavage, heat 95 °C, SEC); not shown: His6, N-terminal, cleaved; MBP, N-terminal, cleaved
B19: CCC_(deletion): I3_(27-59) (Δ60-68) (domain or fragment, human, UniProt O60927 27-59, looked up)
chain: B18 chain
notes: PPP1R11), human, residues 27-59; also called I3 CCC_(deletion) variant; I3_(27-68) CCC_(deletion); source: E. coli BL21 (DE3), purified (Ni-NTA, TEV, heat 95 °C, SEC); not shown: His6, N-terminal, cleaved; MBP, N-terminal, cleaved
B20: CCC_(deletion): I3_(27-59) (Δ60-68) (domain or fragment, human, UniProt O60927 27-59, looked up)
chain: B18 chain
notes: PPP1R11), human, residues 27-59; also called CCCdead: I327-59 (Δ60-62); I3 27-59 (CCC dead); source: E. coli BL21 (DE3), purified (Ni-NTA, TEV cleavage, heat, SEC); not shown: His6, N-terminal, cleaved; MBP, N-terminal, cleaved

Key:
PP1α7-330 [1] = target: PP1α7-330 (UniProt P62136)
PP1α7-330 (UniProt P62136), sequence (P62136 7-330): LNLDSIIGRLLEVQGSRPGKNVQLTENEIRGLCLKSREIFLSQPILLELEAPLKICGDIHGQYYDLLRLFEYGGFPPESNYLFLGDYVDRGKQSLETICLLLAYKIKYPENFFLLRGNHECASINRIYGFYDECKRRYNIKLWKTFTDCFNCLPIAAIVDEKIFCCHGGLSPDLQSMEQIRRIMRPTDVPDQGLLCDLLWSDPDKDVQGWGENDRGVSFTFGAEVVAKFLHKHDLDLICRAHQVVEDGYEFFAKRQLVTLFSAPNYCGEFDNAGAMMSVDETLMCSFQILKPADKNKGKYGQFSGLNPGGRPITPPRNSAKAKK

His6-PP1α_(7-330) [2] = target: T1, His6-PP1α_(7-330) (UniProt P62136 7-330); experiment: cell-based or functional assay
T1 sequence (P62136 7-330): as above

His6-PP1α_(7-330) C273S [3] = target: T2, His6-PP1α_(7-330) C273S (UniProt P62136 7-330, C273S); experiment: cell-based or functional assay
T2 sequence (P62136 7-330 C273S): as the sequence (P62136 7-330) above, with C267S counted along it

His6-PP1α_(7-330) [4] = target: T1, His6-PP1α_(7-330); experiment: SPR; His6-PP1 captured on a Ni-NTA sensorchip, I3_(27-68) injected; pH = 7.0 (Table 1); two state fit; conditions: both partners purified
His6-PP1α_(7-330) [5] = target: T1, His6-PP1α_(7-330); experiment: SPR; His6-PP1 captured on a Ni-NTA sensorchip, I3_(27-68) injected; pH = 6.5 (Table 1); two state fit; pH 6.5; conditions: both partners purified
His6-PP1α_(7-330) [6] = target: T1, His6-PP1α_(7-330); experiment: SPR; His6-PP1 captured on a Ni-NTA sensorchip, I3_(27-68) injected; pH = 7.5 (Table 1); two state fit; pH 7.5; conditions: both partners purified
His6-PP1α_(7-330) [7] = target: T1, His6-PP1α_(7-330); experiment: SPR; His6-PP1 captured on a Ni-NTA sensorchip (NiHC200M), I3 variants injected; 25 °C; 20 mM Tris pH 8.0, 500 mM NaCl, 1 mM MnCl2, 0.5 mM TCEP, 0.05% Tween-20; one-to-one one state or one-to-one two state model; conditions: both partners purified
His6-PP1α_(7-330) C273S [8] = target: T2, His6-PP1α_(7-330) C273S; experiment: as above; conditions: both partners purified
His6-PP1α_(7-330) H66K = target: T3, His6-PP1α_(7-330) H66K (UniProt P62136 7-330, H66K); experiment: as above; conditions: both partners purified
T3 construct: Protein Phosphatase 1 alpha (PP1α), residues 7-330, H66K; also called PP1 H66K; PP1_(7-330) H66K; source: bacterial expression (E. coli) as previously described, purified (Ni-NTA, SEC)
T3 sequence (P62136 7-330 H66K): as the sequence (P62136 7-330) above, with H60K counted along it

His6-PP1α_(7-330) H248N = target: T4, His6-PP1α_(7-330) H248N (UniProt P62136 7-330, H248N); experiment: as above; conditions: both partners purified
T4 construct: Protein Phosphatase 1 alpha (PP1α), residues 7-330, H248N; also called PP1_(7-330) H248N; source: bacterial expression (E. coli) as previously described, purified (Ni-NTA, SEC)
T4 sequence (P62136 7-330 H248N): as the sequence (P62136 7-330) above, with H242N counted along it

PP1α_(7-330) = target: T5, PP1α_(7-330) (UniProt P62136 7-330); experiment: SPR; His6-PP1 captured on Ni-NTA chip (NiHC200M), I3 variants injected; 25 °C; 20 mM Tris pH 8.0, 500 mM NaCl, 1 mM MnCl2, 0.5 mM TCEP, 0.05% Tween-20; one-to-one one state or one-to-one two state model (TraceDrawer); conditions: both partners purified
T5 construct: Protein Phosphatase 1 alpha (PP1α), residues 7-330; His6-PP1 was captured on the Ni-NTA sensor chip as the SPR ligand; Mn2+ in all buffers; also called Protein Phosphatase 1; His6-PP1; source: E. coli, purified (Ni-NTA, SEC)
T5 sequence (P62136 7-330): as the sequence (P62136 7-330) above

His6-PP1α_(7-330) [9] = target: T1, His6-PP1α_(7-330); experiment: SPR; His6-PP1 captured on a Ni-NTA sensorchip (NiHC200M), I3 variants injected; 25 °C; 20 mM Tris pH 8.0, 500 mM NaCl, 1 mM MnCl2, 0.5 mM TCEP, 0.05% Tween-20; one-to-one one state or one-to-one two state model; conditions: both partners purified; remark: listed apart in the source
PP1α7-330 [10] = target: T6, PP1α7-330 (UniProt P62136 7-330); experiment: SPR; His6-PP1 captured on a Ni-NTA sensor chip (NiHC200M), I3 variants injected; 25 °C; 20 mM Tris pH 8.0, 500 mM NaCl, 1 mM MnCl2, 0.5 mM TCEP, 0.05% Tween-20; one-to-one one-state or one-to-one two-state fit; conditions: both partners purified
T6 construct: Protein Phosphatase 1 alpha catalytic subunit, residues 7-330; For SPR the His6-tagged PP1 was captured on a Ni-NTA chip; also called Protein Phosphatase 1; PP17-330; source: bacterial expression as previously described, purified (Ni-NTA, SEC)
T6 sequence (P62136 7-330): as above

Binder	IC50 of PP1 inhibition (dephosphorylation of the H3pT3 peptide, released Pi) (His6-PP1α_(7-330) [2])	Kd (His6-PP1α_(7-330) [7])	Kd (PP1α_(7-330))	other results
B1				Supplementary Figure 5A: IC50 of PP1 inhibition by I3 27-68 (dephosphorylation of the H3pT3 peptide) in the presence of 1.3 mM DTT; I3 exchanged into buffer without 0.5 mM TCEP (PP1α7-330 [1]): 70 nM
B2	75 nM	9.3 ± 1.1 nM		IC50 of PP1 C273S inhibition (dephosphorylation of the H3pT3 peptide, released Pi; 1.33 mM DTT) (His6-PP1α_(7-330) C273S [3]): 85 nM; Kd (His6-PP1α_(7-330) [4]): 16.1 ± 1.1 nM; Kd (His6-PP1α_(7-330) [5]): 17 ± 0.8 nM; Kd (His6-PP1α_(7-330) [6]): 9 ± 0.6 nM; Kd (His6-PP1α_(7-330) C273S [8]): 16.1 ± 0.7 nM; Kd (His6-PP1α_(7-330) H66K): 5.9 ± 0.6 nM; Kd (His6-PP1α_(7-330) H248N): 6.6 ± 1.7 nM
B3		15.6 ± 2.4 nM		
B4	243 nM	21.7 ± 3.1 nM		
B5			45.5 nM and 63.4 nM and 53.1 nM	
B6	179 nM	54 ± 9 nM		
B7	153 nM	21.2 ± 0.6 nM		
B8			19 nM and 13.1 nM and 14.3 nM and 15.5 nM	
B9			88 nM and 81.1 nM and 88.3 nM and 89.6 nM	
B10			20.1 nM and 18.7 nM and 17.5 nM	
B11			20.7 nM and 21.6 nM	
B12	158 nM	18.8 ± 0.9 nM		
B13	380 nM	412 ± 6 nM		
B14			16.1 nM and 17.4 nM and 28.3 nM	
B15	349 nM	86.8 ± 3.8 nM		Kd (His6-PP1α_(7-330) [9]): 86.6 nM
B16	171 nM	20.6 ± 5.1 nM		
B17			409 nM and 421 nM and 406 nM	koff (PP1α_(7-330)): 0.0719 s⁻¹ and 0.0774 s⁻¹ and 0.0728 s⁻¹ and 0.074 s⁻¹; kon (PP1α_(7-330)): 176000 M⁻¹ s⁻¹ and 184000 M⁻¹ s⁻¹ and 179000 M⁻¹ s⁻¹ and 180000 M⁻¹ s⁻¹
B18				koff (PP1α7-330 [10]): 0.0766 s⁻¹; kon (PP1α7-330 [10]): 210000 M⁻¹ s⁻¹
B19	422 nM	376 ± 47 nM		
B20			447 nM and 329 nM and 352 nM	koff (PP1α_(7-330)): 0.0749 s⁻¹ and 0.0798 s⁻¹ and 0.0752 s⁻¹ and 0.0766 s⁻¹; kon (PP1α_(7-330)): 168000 M⁻¹ s⁻¹ and 242000 M⁻¹ s⁻¹ and 213000 M⁻¹ s⁻¹ and 208000 M⁻¹ s⁻¹
